Measured values from doi:10.1101/2022.09.08.506998.

Target: full-length KIT(T417I,Δ418-419) (kinase-inactive K623A) (human)
Test: cryo-EM structure

Substance: full-length KIT(T417I,Δ418-419) (kinase-inactive K623A) (receptor)
- stoichiometry N: 2
